Data from the RNAGym collection of RNA variant scans (doi:10.1021/acssynbio.7b00057).

B1: Pistol ribozyme (parent)
chain: GGGUCGUUGUUCCAUAAUCGCGUGGAUAUGGCACGCAAGUUUCUACCGGGCACCGUAAAUGUCCGACUGGAGCCGUUCGGGCGGCUAUAAACAGACCUCAGGCCCGAAGCGUGGCGGCACCUGCCGCCGGUGGUAAAAAAGAUCGGAAGAGCACACGUCU

Variants of: B1
Test: aptazyme ON/OFF ratio, guanine; higher = stronger switching; co-transcriptional cleavage with and without guanine

Which “aptazyme ON/OFF ratio” value does the source give for GGGUCGGGCCGAGAUAAUCGCGUGGAUAUGGCACGCAAGUUUCUACCGGGCACCGUAAAUGUCCGACUGGAGCCGUUCGGGCGGCUAUAAACAGACCUCAGGCCCGAAGCGUGGCGGCACCUGCCGCCGGUGGUAAAAAAGAUCGGAAGAGCACACGUCU [U7G U8G G9C U10C U11G C12A C13G] here?
Its value is 1.31.

For GGGUCGUACGAAUAUAAUCGCGUGGAUAUGGCACGCAAGUUUCUACCGGGCACCGUAAAUGUCCGACUGGAGCCGUUCGGGCGGCUAUAAACAGACCUCAGGCCCGAAGCGUGGCGGCACCUGCCGCCGGUGGUAAAAAAGAUCGGAAGAGCACACGUCU [U8A G9C U10G U11A C12A C13U], which “aptazyme ON/OFF ratio” value is on record?
The value was 1.21.

For GGGUCGUCAGCAAAUAAUCGCGUGGAUAUGGCACGCAAGUUUCUACCGGGCACCGUAAAUGUCCGACUGGAGCCGUUCGGGCGGCUAUAAACAGACCUCAGGCCCGAAGCGUGGCGGCACCUGCCGCCGGUGGUAAAAAAGAUCGGAAGAGCACACGUCU [U8C G9A U10G U11C C12A C13A], which “aptazyme ON/OFF ratio” value is on record?
Its value is 1.15.

Which “aptazyme ON/OFF ratio” value does the source give for GGGUCGCUAAGGUAUAAUCGCGUGGAUAUGGCACGCAAGUUUCUACCGGGCACCGUAAAUGUCCGACUGGAGCCGUUCGGGCGGCUAUAAACAGACCUCAGGCCCGAAGCGUGGCGGCACCUGCCGCCGGUGGUAAAAAAGAUCGGAAGAGCACACGUCU [U7C G9A U10A U11G C12G C13U] here?
Its value is 1.11.

With GGGUCGGCGGCCAAUAAUCGCGUGGAUAUGGCACGCAAGUUUCUACCGGGCACCGUAAAUGUCCGACUGGAGCCGUUCGGGCGGCUAUAAACAGACCUCAGGCCCGAAGCGUGGCGGCACCUGCCGCCGGUGGUAAAAAAGAUCGGAAGAGCACACGUCU [U7G U8C U10G U11C C13A] as the variant, how does the “aptazyme ON/OFF ratio” value read?
The value was 1.33.

For GGGUCGAACAUGGAUAAUCGCGUGGAUAUGGCACGCAAGUUUCUACCGGGCACCGUAAAUGUCCGACUGGAGCCGUUCGGGCGGCUAUAAACAGACCUCAGGCCCGAAGCGUGGCGGCACCUGCCGCCGGUGGUAAAAAAGAUCGGAAGAGCACACGUCU [U7A U8A G9C U10A C12G C13G], which “aptazyme ON/OFF ratio” value is on record?
Its value is 1.13.

Which “aptazyme ON/OFF ratio” value does the source give for GGGUCGCUAGACGAUAAUCGCGUGGAUAUGGCACGCAAGUUUCUACCGGGCACCGUAAAUGUCCGACUGGAGCCGUUCGGGCGGCUAUAAACAGACCUCAGGCCCGAAGCGUGGCGGCACCUGCCGCCGGUGGUAAAAAAGAUCGGAAGAGCACACGUCU [U7C G9A U10G U11A C13G] here?
Its value is 1.04.

For GGGUCGCGUUGCGAUAAUCGCGUGGAUAUGGCACGCAAGUUUCUACCGGGCACCGUAAAUGUCCGACUGGAGCCGUUCGGGCGGCUAUAAACAGACCUCAGGCCCGAAGCGUGGCGGCACCUGCCGCCGGUGGUAAAAAAGAUCGGAAGAGCACACGUCU [U7C U8G G9U U11G C13G], which “aptazyme ON/OFF ratio” value is on record?
The value was 1.04.

With GGGUCGGCCGGUCAUAAUCGCGUGGAUAUGGCACGCAAGUUUCUACCGGGCACCGUAAAUGUCCGACUGGAGCCGUUCGGGCGGCUAUAAACAGACCUCAGGCCCGAAGCGUGGCGGCACCUGCCGCCGGUGGUAAAAAAGAUCGGAAGAGCACACGUCU [U7G U8C G9C U10G U11G C12U] as the variant, how does the “aptazyme ON/OFF ratio” value read?
Its value is 1.06.

For GGGUCGGUGUAAGAUAAUCGCGUGGAUAUGGCACGCAAGUUUCUACCGGGCACCGUAAAUGUCCGACUGGAGCCGUUCGGGCGGCUAUAAACAGACCUCAGGCCCGAAGCGUGGCGGCACCUGCCGCCGGUGGUAAAAAAGAUCGGAAGAGCACACGUCU [U7G U11A C12A C13G], which “aptazyme ON/OFF ratio” value is on record?
The value was 1.14.

For GGGUCGCUGUACCAUAAUCGCGUGGAUAUGGCACGCAAGUUUCUACCGGGCACCGUAAAUGUCCGACUGGAGCCGUUCGGGCGGCUAUAAACAGACCUCAGGCCCGAAGCGUGGCGGCACCUGCCGCCGGUGGUAAAAAAGAUCGGAAGAGCACACGUCU [U7C U11A], which “aptazyme ON/OFF ratio” value is on record?
The value was 1.38.

Which “aptazyme ON/OFF ratio” value does the source give for GGGUCGACGGUCGAUAAUCGCGUGGAUAUGGCACGCAAGUUUCUACCGGGCACCGUAAAUGUCCGACUGGAGCCGUUCGGGCGGCUAUAAACAGACCUCAGGCCCGAAGCGUGGCGGCACCUGCCGCCGGUGGUAAAAAAGAUCGGAAGAGCACACGUCU [U7A U8C U10G C13G] here?
The value was 1.24.

For GGGUCGGUGAAGGAUAAUCGCGUGGAUAUGGCACGCAAGUUUCUACCGGGCACCGUAAAUGUCCGACUGGAGCCGUUCGGGCGGCUAUAAACAGACCUCAGGCCCGAAGCGUGGCGGCACCUGCCGCCGGUGGUAAAAAAGAUCGGAAGAGCACACGUCU [U7G U10A U11A C12G C13G], which “aptazyme ON/OFF ratio” value is on record?
The value was 1.16.

With GGGUCGGCGGCGCAUAAUCGCGUGGAUAUGGCACGCAAGUUUCUACCGGGCACCGUAAAUGUCCGACUGGAGCCGUUCGGGCGGCUAUAAACAGACCUCAGGCCCGAAGCGUGGCGGCACCUGCCGCCGGUGGUAAAAAAGAUCGGAAGAGCACACGUCU [U7G U8C U10G U11C C12G] as the variant, how does the “aptazyme ON/OFF ratio” value read?
The value was 2.08.

For GGGUCGGCCCGAAAUAAUCGCGUGGAUAUGGCACGCAAGUUUCUACCGGGCACCGUAAAUGUCCGACUGGAGCCGUUCGGGCGGCUAUAAACAGACCUCAGGCCCGAAGCGUGGCGGCACCUGCCGCCGGUGGUAAAAAAGAUCGGAAGAGCACACGUCU [U7G U8C G9C U10C U11G C12A C13A], which “aptazyme ON/OFF ratio” value is on record?
Its value is 1.19.

With GGGUCGCAAUUCUAUAAUCGCGUGGAUAUGGCACGCAAGUUUCUACCGGGCACCGUAAAUGUCCGACUGGAGCCGUUCGGGCGGCUAUAAACAGACCUCAGGCCCGAAGCGUGGCGGCACCUGCCGCCGGUGGUAAAAAAGAUCGGAAGAGCACACGUCU [U7C U8A G9A C13U] as the variant, how does the “aptazyme ON/OFF ratio” value read?
The value was 1.18.

Which “aptazyme ON/OFF ratio” value does the source give for GGGUCGGUAUAAGAUAAUCGCGUGGAUAUGGCACGCAAGUUUCUACCGGGCACCGUAAAUGUCCGACUGGAGCCGUUCGGGCGGCUAUAAACAGACCUCAGGCCCGAAGCGUGGCGGCACCUGCCGCCGGUGGUAAAAAAGAUCGGAAGAGCACACGUCU [U7G G9A U11A C12A C13G] here?
The value was 1.09.

Which “aptazyme ON/OFF ratio” value does the source give for GGGUCGCGCCGAGAUAAUCGCGUGGAUAUGGCACGCAAGUUUCUACCGGGCACCGUAAAUGUCCGACUGGAGCCGUUCGGGCGGCUAUAAACAGACCUCAGGCCCGAAGCGUGGCGGCACCUGCCGCCGGUGGUAAAAAAGAUCGGAAGAGCACACGUCU [U7C U8G G9C U10C U11G C12A C13G] here?
Its value is 1.06.
